{
  "source": "paper PMC4579057",
  "about": "(Journal of molecular biology, 2015)",
  "target": "the molecule itself",
  "test": "SEC",
  "data": [
    {"protein": "APOBEC3B carboxy-terminal domain 193-CTD (Met-193 to the carboxy-terminal end) (domain or fragment) not shown", "values": [
      {"measurement": "stoichiometry N", "result": 2}
    ]}
  ]
}
